# Data: the DeepSol protein solubility set
# Assay: soluble on expression in E. coli; label from the status in PepcDB or PDB records
row,Sequence,soluble on expression in E. coli
1,MAYLEQLQAGLRYLGRAGESGRKSLDKVVAPVNGAISEIRGAAAELENLPGVSPEMAARLQRAMRGIGQAQGKVNRVVSTYDRASRALLGIDERLDALKVQVNSAAQAVGKVAGDISPTLAGVLPSWLLAPSATPPSEAAASLPHLLVLQPLTANAQPFYFNLNTAAFDALQRNSAYNWSGQVRLGRRPALQSVGMGEESILLKGAVFPLRRQVGNQEKVVGLEQLEALRRLAERREPLILSSGYGEVQMGLWCLVRISENQSALLGNGAPRKQTFDLEFKRYGDDLPNR,not soluble
2,MCMGGINDNLVRFVYKYKIKMKRERSAMNIEYMNQKVEFSLVRKERKSIKISVNRDFTIEVIAPFNVAEEEIKNVVYKKMKWIIKQMKRMENIIDINEEIKYSDGDAFYIFGTPYRLIVKKGIKNKMRIFGENVYMYIKEKDNYEYKKNYAEKWYKKIAAIELEYLYNEKYKIFDEIYDEKPKLIRKMKSKWGSYSPADNKVVLNTQLVKIPKTCIEYVIIHELCHVKFRNHRKEFYNYVNNFMPDWKLKKESLDRYVNVLEHHHHHH,not soluble
3,MRKTKTEALKTKEHLMLAALETFYRKGIARTSLNEIAQAAGVTRGALYWHFKNKEDLFDALFQRICDDIENCIAQDAEDAEGGSWAVFRHTLLHFFERLQSNDIYYKFHNILFLKCEHTEQNAAVIAIARKHQAIWREKITAVLTEAVENQDLADDLDKETAVIFIKSTLDGLIWRWFSSCERFDLGKTAPRIIGIMMDNLENHPDLRRK,soluble
4,MSYNEKSSKSIHEKRAIAKYAASLIEDGDCIFVDAGTTTYELIDYLEGKDILVVSNGLSHIDTLIQKNIKCYVIGGNIKISTKAITGCDALMCLSKFRFDKCFIGANGVHHTYGLTTPDTEEAILKECAINNSRKAYVLADDSKFGEISTIKFSDINKCVIITNEKPKDLEHHHHHH,not soluble
5,MMGLLKRLLRVVRAEAHSVVEKLEDPIKITEEGLRELRKQLKEAMEALAQVKASQIRFEREARNEKERAKALVKKAESLLLQAQEGKISPEEAEKLAAELIQKAELHEKNARRLEEEAKRQREMAVKLQAKIDELKVQIAKYEAELKTLKARLATARAVKKVNKQIAKVDPSDTIAMLERMKEKVEEEETLAQAYEELAKQEVALDVESEAEKKLKEVESKQKLEELKKRLGLSLEHHHHHH,not soluble
6,MGSDKIHHHHHHMLNQQWLTTFIKLVEVGHFTHTAEQLFMTQPGVSQHIKKLEQQVGVDLLIRIGKSFELTEAGIVLYQQALVWQQQQQQVLSQLAVDDEHVGDCRLACSGSMALLLYPHLIDYQLPYSQLQIYLEAAPNKRIIDSVMTNTIDVGIITQPINMDELVVTPLAAQSLCLVLPQSYLHQSVTFEQLMELGMVSHPDAMHYWSQIVGQYFTKKQALALQVPIRSYVNQLNQILVPVAKGLAFAVLPQFAVDHFGQQQHIRVASFTTEQANNVVVSEPLFIIYKKHRPLARRYGPIIDKIKQLVK,not soluble
7,MSDSDDNAYSDYLGNRRAALQKKRQPVRVCESDDSDDDFDTSGPSPMRKKTRETQLFPDDSDDDECVEVEKETYSQKVRHEIDDVEEAYRRSIYKRETVIHAPVEKNNVISGLLKICEGWDEAAKSGAQPEVEDVKDDSDADESSIAAENFPVTVVILDCESHGNDMKSRHDIFLESTFSEIRRIYATKWGCPVSCVVFSHNGKTIDTYTTPQSLGWRPMTLPHPLIEASKEAGEPAEVFTIENSPDSFTIKVLLASRRKPVQVEAAKDTTIQEILQKVIDAFVEDKEENIPSIESMKVVFDNERIKDVNITCEQLDLEDDDCIEVYF,not soluble
8,MTELRVYLLIEALQPQFAACLSSPTRARGYPAFAGQSSLIIEVSPALAIHRVTDLALKSAPAMEPGILYTERQFGLLELHADSLEKLNAAGQAILDGMGAKPEDQLKPQILYHDIIENLSDQHAIILNRSREASILVPGVALLIYEMAPALFACVAANEAERAVPRAVINDVQMMGATGRVFMSGSLAEMRLARETITAKLESIPGRQ,not soluble
9,MSLTHPDFTILYVDNPPASTQFYKALLGVDPVESSPTFSLFVLANGMKLGLWSRHTVEPKASVTGGGGELAFRVENDAQVDETFAGWKASGVAMLQQPAKMEFGYTFTAADPDSHRLRVYAFAGEGHHHHHH,not soluble
10,MNTPLQRPLADSTGLIENDAHALAVATALAQEFSIDAALRDRERQIPYSELDAVSRSGILGISIPLAFGGAEVNNVILAKVIAQIAQADGSLGQILQNHFHTLEALRVYGSRAQQQRIFAEVLAGALFGVAVDEQGTTNSQICTAVLAPSGEGYRISGRKFCATCAPYTRQILASAVDAQGARYMVFISLDALGLSIVDDGSCFGQRTVGGGSVMFDNVYVTSSDVVPFQVSLNDPNCVERHAQFMHAAVGTGIARAAYEDTLRFVREHARPWPEAAVDKARDDPLTIIEIGRLIIRLHAAEALLERAGAAVDLNRKAVCAENVALASMVVAAAQTLSTEVSLAAGSKLIELGGARATLSDYGLDRHWRNARVHTLYDPARWGPHQQGQQKLAPF,not soluble
11,MSLNKKVDIRHIFISSQERGKEEAKKLADEIYNRLKNNEDFETLAKQYSDDEKTKESGGVITELRAGFNEAVFDNAVFTAEAGQLLEPIEVARGYEIVYVDKVTDFYRTRDEYAELLTVDKFMQSDAYKEWFEEYKKNYDIEITDPAMKAFRLFREKQYNEAGALYEELYKSEKDAYYIEMACEAYKLAENWAGLIEAGKLAVKENPDFVNYYLYQAEGEFKVGDANKAKELLKEAEKKAGDNTYFLDLIRKMYESQGLAEDVERIDRKFQEISEKLKGEGHHHHHH,soluble
12,NEAPIDMHGGKSAKIERQSVENSAQKENSKSAILERLKRLREYSKDHLKAFQRLQVQDFDGRIKPLDTISIEYIHKILKKDDFQGLNAMQVLLGIMFFPNDWRSIKMIYTSTKALRKLIGTPLDESRIAFRDAFDSRGYKLKNLVEEVNQKSPNARNELDKDVLKVDERINLVYTLFSAQFLRIFPSDKTTAWLSPIEAISSPNKEISSVATEFLKNIFSGFDDALKTNQWDKVEKTLKDLSIYQKEHAKNLYLSSSKVDSEIFLNHTNFFNRLT,not soluble
13,GPGSYDSNLYVASLPEWFTDADLHELFKRFGPIVSAKVMCHKGTHHCKGYGFVLFQRTDDAAVARSEMIGHVVGGNKIQVRRARSAASAPLTEAASAVSGTFTESSGSTRTSSSNVTPINYSVHVVPSQQPSFNPLYPATTALTPTYVLTNPSAPVQNATHTQPAMLVAVPNGRTMVQGAGDVMYMVLASSAQQMQSTSAIY,not soluble
14,SLDSEKVKVLSIEEDNQAEILKELGLPANASYYRIKRVRYSEDTPFLVHITHLPKKLVKEPLSKDLTAYASVYERVRKDFSVDLFSLASVETNEIVFPEDAELLNLLQLSFREPAVKQVKHSYLADGSVAEYIISYKHWKYFKTKIEVEAE,soluble
15,MGSDKIHHHHHHMTHPQDQHPPQDARTLPTRDHDASEALLERVRQAAATGTALRLVGGGSKGFYGRPVVGETLSLAEHTGIVNYDPVELVVTVRAGTRLADLQAVLAQEGQQLAFEPPHFGENATVGGTVACGLSGPRRPWAGSVRDFVLGTRMITHDGKRLHFGGEVMKNVAGYDLSRLMVGAQGTLGIIDEVSFKVLPRPAASATLRLEMGLGDAMARLAEWGRKPMPITGAAHDGETLHLRLEGGASSVANTQAQLGGELDDTAFWTQLRELELAFFSRRHDDRPLWRLSLPHRAPPLALDGDTLVDWAGAQRWLRSELPAATIRQHAAQAGGHATLVDRDRAHGVDAPFTPLSVVMDKYHRQLKAKLDPKGIFNPGRLYEGL,not soluble
16,MIFNIQRYSTHDGPGIRTVVFLKGCSLGCRWCQNPESRARSEDLLYDSRLCLAGCELCQQAAPAVITRTLDGLIIHRQNVNDSHIAALRDCCPTTALTVCGEEKSVEEIMATVLRDKPFYDRSGGGITLSGGEPFMNPTLAQALFEASHQAGIHTAVETCLHVPWKYIEPSLPFVDLFLADLKHVDEAVFQQWTDGSARRVLDNLQRLAQAGKKMIIRVPLIQGFNASEADIAAITDFAADRLQVSEIHYLPYHTLGMNKYQLLSQPYTAPDKPLDAPELLVFAQDYAQSKGLTAILRG,not soluble
